Target: N-terminal protein A (PA)-Renilla luciferase (RL)-ARFRP1 fusion protein (UniProt Q13795)
Assay: co-IP

UniProt Q13795, sequence (Q13795 whole entry, the tested form may be a part): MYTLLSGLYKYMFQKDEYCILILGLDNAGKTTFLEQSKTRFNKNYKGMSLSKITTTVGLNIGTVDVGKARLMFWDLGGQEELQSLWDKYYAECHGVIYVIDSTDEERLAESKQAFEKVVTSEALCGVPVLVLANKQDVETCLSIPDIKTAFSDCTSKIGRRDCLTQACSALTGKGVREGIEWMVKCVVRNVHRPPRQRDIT

V5-firefly luciferase (FL)-tagged VPS35 (from UniProt Q96QK1 1-796) (natural protein)
fold luciferase activity over control: 2.8 fold

From publication PMC7811047
